This note sets out measurements from patent US20040265295A1 (WISCONSIN ALUMNI RESEARCH FOUNDATION, published 2004).

For experiment [1], the target named is T1, GST-talin head Arg^358->Gln mutant (human, UniProt Q9Y490 1-435).
T1 construct: Talin head mutant in pET42; also called mutant GST-talin; not shown: GST (and further tags) of the pET42 vector
Description: GST pull-down. The protocol:
(§1) Purified GST-talin head proteins were incubated with PIPKIγ661 tails or β1-integrin tail, together with Glutathione SEPHAROSE™ 4 Fast Flow (Amersham Biosciences, Piscataway, N.J.), in Buffer B (PBS, 0.2% NP-40, 2 mM DTT) at 4° C. for 4 hours. The beads were washed three times with Buffer B and analyzed by western blot. For competition assays, GST-talin head proteins were incubated with peptides or competing proteins for 2 hours, then the binding proteins were added and the mixtures were incubated for another 4 hours.

Experiment [2] has as its target T2, GST-talin head Lys^357->Gln mutant (human, UniProt Q9Y490 1-435).
T2 construct: Talin head mutant in pET42; also called mutant GST-talin; not shown: GST (and further tags) of the pET42 vector
Description: GST pull-down. The protocol: as §1

Ends that are not written are not given here.

T2 sequence (Q9Y490 other isoform, or with tags, fused parts or gaps mutant): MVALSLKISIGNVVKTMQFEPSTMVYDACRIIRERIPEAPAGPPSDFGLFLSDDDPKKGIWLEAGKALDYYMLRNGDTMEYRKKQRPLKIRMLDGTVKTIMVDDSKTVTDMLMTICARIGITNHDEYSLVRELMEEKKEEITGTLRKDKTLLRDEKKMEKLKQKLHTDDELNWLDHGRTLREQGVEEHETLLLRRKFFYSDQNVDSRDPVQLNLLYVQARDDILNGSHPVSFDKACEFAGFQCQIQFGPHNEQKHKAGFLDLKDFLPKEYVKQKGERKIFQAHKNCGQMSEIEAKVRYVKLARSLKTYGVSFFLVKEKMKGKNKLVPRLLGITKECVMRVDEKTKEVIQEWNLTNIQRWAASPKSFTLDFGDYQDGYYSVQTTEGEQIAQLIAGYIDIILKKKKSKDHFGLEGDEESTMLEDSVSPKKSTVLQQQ
T1 sequence (Q9Y490 other isoform, or with tags, fused parts or gaps mutant): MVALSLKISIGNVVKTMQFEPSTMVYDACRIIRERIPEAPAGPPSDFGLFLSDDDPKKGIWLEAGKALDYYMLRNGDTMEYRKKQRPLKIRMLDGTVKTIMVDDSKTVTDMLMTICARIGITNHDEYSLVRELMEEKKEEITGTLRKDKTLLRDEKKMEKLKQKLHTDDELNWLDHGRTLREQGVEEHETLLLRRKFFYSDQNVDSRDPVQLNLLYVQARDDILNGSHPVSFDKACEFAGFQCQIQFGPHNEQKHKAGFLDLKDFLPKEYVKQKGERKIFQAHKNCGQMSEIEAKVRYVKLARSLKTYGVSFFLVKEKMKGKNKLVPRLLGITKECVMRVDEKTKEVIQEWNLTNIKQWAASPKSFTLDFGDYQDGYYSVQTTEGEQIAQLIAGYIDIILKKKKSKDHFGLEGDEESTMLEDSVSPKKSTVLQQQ

B1: His-tagged mouse β1-integrin tail (receptor, UniProt P09055 752-798, looked up)
chain: KLLMIIHDRREFAKFEKEKMNAKWDTGENPIYKSAVTTVVNPKYEGK
modifications: not fully specified (N-terminus); also: N-terminal His tag of pET28 vector, sequence not given here
notes: domain: tail; also called His-β1-integrin tail; His-β-integrin; not shown: His tag of the pET28 vector
Take B1: the binding result in experiment [1] and in experiment [2] was “no binding” throughout.
